Experimental data taken from the supplement of paper PMC10724198.

Assays:
Saccharomyces cerevisiae [1] = assay: protein stability index of tFT-peptide fusion in deletion strain of DOA10 (PSI (0-1 scale)); higher = more stable (slower turnover)
Protocol: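 MPS profiling in S. cerevisiae of two library types built from selected 12-aa C-degron peptides (IN1, IN2, LN1, LN3, VN2, R1-R5, W1-W3, Atg1 and Rpa12 C-termini): saturation mutagenesis libraries and C-terminal +1 capping libraries (13 aa). Each peptide is fused to the C-terminus of a sfGFP-mCherry timer, after a GGGS linker. Cells are FACS-sorted into 8 mCherry/sfGFP bins and sequenced. PSI runs from 0 (unstable) to 1 (stable), measured once in wild type and in the das1Δ or doa10Δ background.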

Saccharomyces cerevisiae [2] = assay: protein stability index of tFT-peptide fusion in wild type (PSI (0-1 scale)); higher = more stable (slower turnover); conditions: genetic background: wild type
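Throughout, for protein stability index of tFT-peptide fusion in deletion strain of DOA10: PSI per variant is the weighted mean of its sequencing read distribution over the sorted stability bins, counting only variants with over 10 reads summed across bins.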
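Throughout, for protein stability index of tFT-peptide fusion in wild type: PSI derived as read-weighted mean over the 8 sorting bins, only variants exceeding 10 total reads kept, mCherry placed adjacent to the peptide and sfGFP distal.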

Sequence	protein stability index (Saccharomyces cerevisiae [1])	protein stability index (Saccharomyces cerevisiae [2])
AITLPMCDLLLR	0.675	0.639
AITLPMCELLLR	0.676	0.511
AITLPMCFLLLR	0.62	0.0902
AITLPMCKLLLR	0.663	0.392
AITLPMCPKLLR	0.671	0.643
AITLPMCPLHLR	0.68	0.566
AITLPMCPLILR	0.656	0.238
AITLPMCPLKLR	0.668	0.549
AITLPMCPLLLD	0.684	0.608
AITLPMCPLLLK	0.653	0.269
AITLPMCPLLLM	0.545	0.505
AITLPMCPLLRR	0.717	0.62
AITLPMCPLLSR	0.594	0.573
AITLPMCPLLTR	0.606	0.561
AITLPMCPLLYR	0.652	0.529
AITLPMCPLQLR	0.68	0.608
AITLPMCPLVLR	0.646	0.233
AITLPMCPMLLR	0.661	0.392
AITLPMLPLLLR	0.633	0.125
AITLPMQPLLLR	0.639	0.238
AITLPMTPLLLR	0.644	0.229
AITLPRCPLLLR	0.662	0.265
AIYLPMCPLLLR	0.617	0.268
AYTLPMCPLLLR	0.657	0.171

Sequence	protein stability index (Saccharomyces cerevisiae [1])	protein stability index (Saccharomyces cerevisiae [2])
CITLPMCPLLLR	0.635	0.118
CIVSLPILLFFR	0.566	0.0595
CLCSLPILLFFR	0.615	0.106
CLFSLPILLFFR	0.581	0.0583
CLQSLPILLFFR	0.631	0.0983
CLVCLPILLFFR	0.494	0.104
CLVSLHILLFFR	0.292	0.144
CLVSLPCLLFFR	0.639	0.064
CLVSLPILGFFR	0.661	0.625
CLVSLPILIFFR	0.53	0.0649
CLVSLPILLAFR	0.594	0.115
CLVSLPILLDFR	0.643	0.553
CLVSLPILLFFD	0.583	0.433
CLVSLPILLFFL	0.45	0.293
CLVSLPILLFFQ	0.53	0.313
CLVSLPILLFFRK	0.57	0.115
CLVSLPILLFFRQ	0.362	0.0783
CLVSLPILLFFRV	0.413	0.0545
CLVSLPILLFFRW	0.473	0.0557
CLVSLPILLFFV	0.385	0.206
CLVSLPILLFHR	0.637	0.481
CLVSLPILLFIR	0.46	0.0496
CLVSLPILLFKR	0.665	0.413
CLVSLPILLFWR	0.638	0.0447

Sequence	protein stability index (Saccharomyces cerevisiae [1])	protein stability index (Saccharomyces cerevisiae [2])
CLVSLPILLFYR	0.585	0.116
CLVSLPILSFFR	0.658	0.581
CLVSLPISLFFR	0.656	0.101
CLVSLPIYLFFR	0.607	0.0617
CLVSLPPLLFFR	0.661	0.0903
CLVSLPQLLFFR	0.655	0.0822
CLVSLSILLFFR	0.286	0.183
CLVSVPILLFFR	0.565	0.064
CLVSWPILLFFR	0.595	0.0554
CLWSLPILLFFR	0.594	0.0887
CMVSLPILLFFR	0.584	0.0703
GLAMCSVGCWFR	0.661	0.268
GLYCCSVGCWFR	0.658	0.342
GLYMCIVGCWFR	0.364	0.214
GLYMCSLGCWFR	0.658	0.283
GLYMCSMGCWFR	0.676	0.321
GLYMCSVACWFR	0.441	0.228
GLYMCSVGCAFR	0.629	0.614
GLYMCSVGCEFR	0.625	0.594
GLYMCSVGCQFR	0.647	0.618
GLYMCSVGCRFR	0.654	0.625
GLYMCSVGCWFE	0.512	0.474
GLYMCSVGCWFG	0.478	0.456
GLYMCSVGCWFP	0.636	0.607

Sequence	protein stability index (Saccharomyces cerevisiae [1])	protein stability index (Saccharomyces cerevisiae [2])
GLYMCSVGCWFRG	0.635	0.334
GLYMCSVGCWFRP	0.62	0.287
GLYMCSVGCWFRQ	0.182	0.113
GLYMCSVGCWFRS	0.521	0.267
GLYMCSVGCWFRW	0.621	0.231
GLYMCSVGCWGR	0.659	0.625
GLYMCSVGCWNR	0.64	0.618
GLYMCSVGCYFR	0.638	0.425
GLYMCSVGDWFR	0.689	0.677
GLYMCSVGIWFR	0.409	0.165
GLYMCSVGMWFR	0.577	0.307
GLYMCSVKCWFR	0.462	0.415
GLYMCSYGCWFR	0.677	0.299
GSYMCSVGCWFR	0.678	0.411
ILVSLPILLFFR	0.545	0.111
KLVSLPILLFFR	0.612	0.0816
RETRLDAIYFRI	0.667	0.545
RKTRLDAIYFRI	0.628	0.49
RSARVLLPLYFR	0.687	0.336
RSLRPLLPLYFR	0.688	0.316
RSLRVLCPLYFR	0.652	0.305
RSLRVLFPLYFR	0.684	0.196
RSLRVLKPLYFR	0.675	0.304
RSLRVLLFLYFR	0.45	0.21

Sequence	protein stability index (Saccharomyces cerevisiae [1])	protein stability index (Saccharomyces cerevisiae [2])
RSLRVLLPLAFR	0.652	0.37
RSLRVLLPLYCR	0.457	0.266
RSLRVLLPLYFC	0.175	0.0775
RSLRVLLPLYFRR	0.675	0.315
RSLRVLLPLYFRW	0.677	0.215
RSLRVLLPLYFV	0.428	0.25
RSLRVLLPLYFW	0.589	0.339
RSLRVLLPLYYR	0.657	0.375
RSLRVLMPLYFR	0.697	0.254
RSLRVWLPLYFR	0.693	0.166
RSTRVLLPLYFR	0.684	0.292
RVTHLDAIYFRI	0.645	0.471
RVTPLDAIYFRI	0.675	0.547
RVTRLAAIYFRI	0.38	0.173
RVTRLDAAYFRI	0.704	0.653
RVTRLDAIDFRI	0.746	0.668
RVTRLDAITFRI	0.72	0.678
RVTRLDAIYFEI	0.725	0.69
RVTRLDAIYFII	0.111	0.0744
RVTRLDAIYFRG	0.701	0.664
RVTRLDAIYFRH	0.716	0.604
